The Kd is the concentration at which binding is half-saturated. The term stoichiometry N denotes a count of units in the complex or per binding partner.

The text below walks through data of paper PMC5358875 (Journal of the American Chemical Society, 2017).

Assay [1] has as its target T1, TNKS2 ARC4 (Homo sapiens, UniProt Q9H2K2).
T1 construct: GST (cleaved yes); made in house; host or cells: E. coli C41(DE3)
T1 sequence (Q9H2K2 488-649): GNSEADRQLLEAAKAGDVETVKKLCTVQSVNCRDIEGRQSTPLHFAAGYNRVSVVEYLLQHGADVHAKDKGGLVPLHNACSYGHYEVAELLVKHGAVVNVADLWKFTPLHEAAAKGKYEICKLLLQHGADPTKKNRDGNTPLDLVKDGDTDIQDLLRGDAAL
Description: Direct fluorescence polarization, TNKS2 ARC4. The assay is classed as binding. To be noted: TAMRA-labeled peptides, n.d. = not detectable; for Kd: read-out: Kd TNKS2 ARC4 (Direct FP). Here is the method: Fluorescence polarization (FP) assays were performed in 96-well half area black microplates (Corning) on a CLARIOstar microplate reader (BMG labtech) using excitation filter 540–20 nm, dichroic mirror LP 566 nm, and emission filter 590–20 nm. All peptides were dissolved in water as stock solutions. For direct FP assays, the stock concentrations of the TAMRA-labeled peptides were determined based on the 5-TAMRA absorbance at 556 nm (extinction coefficient ε = 89,000 M^–1 cm^–1) measured on a NanoDrop 2000 (Thermo Scientific) and verified by amino acid analysis (Department of Biochemistry, University of Cambridge). TNKS2 ARC4 (488–649) or TNKS1 ARC2–3 (315–662) was diluted 2-fold serially in the assay buffer (50 mM HEPES pH 7.5, 300 mM NaCl, 2 mM DTT, 0.05% (v/v) Tween 20) for a 12-point titration curve in triplicate. The diluted TAMRA-labeled peptide (20 nM, 50 μL) was mixed with the serially diluted TNKS2 ARC4 or TNKS1 ARC2–3 (40–0 μM, 50 μL) in each well and incubated for 30 min at 25 °C before the measurement. Data were analyzed on GraphPad Prism 5.0, and the dissociation constant, Kd, was determined using the following equation assuming the ratio between the concentration of the bound and that of the total TAMRA-labeled peptide is proportional to the fluorescence polarization [drawing 1] where FP is the fluorescence polarization, B is the minimum FP, T is the maximum FP, L0 is the total concentration of TAMRA-labeled peptide, P0 is the total concentration of protein, and Kd is the dissociation constant.
A general note: Fluorescence polarisation rises when a labelled molecule tumbles more slowly, as on binding a larger partner.

The target in assay [2] is T2, TNKS2 ARC4 (488–649) (human, UniProt Q9H2K2 488-649).
T2 chain: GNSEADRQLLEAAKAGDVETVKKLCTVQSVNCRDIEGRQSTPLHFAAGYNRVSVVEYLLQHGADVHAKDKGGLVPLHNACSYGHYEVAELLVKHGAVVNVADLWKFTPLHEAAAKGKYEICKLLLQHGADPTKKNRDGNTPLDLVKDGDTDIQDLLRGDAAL
Description: FP.

Assay [3] deals with T3, human tankyrase 2 ankyrin repeat cluster 4 (TNKS2 ARC4, residues 488-649) (human, UniProt Q9H2K2 488-649).
T3 sequence (looked up): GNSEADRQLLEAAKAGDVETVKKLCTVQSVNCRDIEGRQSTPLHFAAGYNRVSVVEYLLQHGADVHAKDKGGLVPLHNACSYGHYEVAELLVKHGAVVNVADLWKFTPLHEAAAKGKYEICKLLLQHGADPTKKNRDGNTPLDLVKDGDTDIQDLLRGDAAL
Nature of the assay: fluorescence polarisation; direct: TNKS2 ARC4 or TNKS1 ARC2-3 diluted 2-fold serially (40-0 uM, 50 uL) and mixed with TAMRA-labeled peptide (20 nM, 50 uL); 50 mM HEPES pH 7.5, 300 mM NaCl, 2 mM DTT, 0.05% Tween 20; 30 min, 25 C. To be noted: both partners purified.

Assay [4] deals with T4, human tankyrase 1 ankyrin repeat clusters 2-3 (TNKS1 ARC2-3, residues 315-662) (human, UniProt O95271 315-662).
T4 sequence (looked up): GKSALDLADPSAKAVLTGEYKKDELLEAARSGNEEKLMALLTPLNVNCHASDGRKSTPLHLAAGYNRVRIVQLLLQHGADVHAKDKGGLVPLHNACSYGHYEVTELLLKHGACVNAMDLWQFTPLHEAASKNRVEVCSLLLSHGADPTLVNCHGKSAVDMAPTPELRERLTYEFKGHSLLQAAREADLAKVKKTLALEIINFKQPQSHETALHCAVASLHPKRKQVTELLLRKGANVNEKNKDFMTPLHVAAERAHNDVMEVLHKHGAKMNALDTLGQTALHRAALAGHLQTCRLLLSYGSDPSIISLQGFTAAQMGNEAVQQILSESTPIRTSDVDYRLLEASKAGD
Described as above. To be noted: both partners purified.

For assay [5], the target named is T4, human tankyrase 1 ankyrin repeat …. Nature of the assay: ITC; TNKS2 ARC4 (160-280 uM) or TNKS1 ARC2-3 (60-150 uM) titrated into the cell with unlabeled peptide (5-15 uM) or Axin1 fragment (8-12 uM); PBS, 0.5 mM TCEP; 25 C; one-site model; stoichiometry = TNKS per peptide or Axin1. To be noted: both partners purified. (In general: ITC needs no label: the signal is the heat of the interaction.)

In assay [6] the target is T3, human tankyrase 2 ankyrin repeat …. The description is as above. To be noted: both partners purified.

Bridge positions count the residues as written; N and C are the ends. Square brackets hold non-standard residues; d marks the D form. Ends that are not written are not given here. * marks the point of attachment. 5‑TAMRA = CN(C)c1ccc2c(-c3ccc(C(=O)*)cc3C(=O)[O-])c3ccc(N(C)C)cc3[o+]c2c1; n3 = azido unnatural amino acid, 3 CH2 in side chain; Orn(N3) = [N-]=[N+]=NCCC[C@H](N)C(=O)O; Dap(N3) = [N-]=[N+]=NC[C@H](N)C(=O)O; Aha = [N-]=[N+]=NCC[C@H](N)C(=O)O; m3N = not defined here; m3c = not defined here; m3 = not defined here; m4 = not defined here; m5 = not defined here; Ahx = NCCCCCC(=O)O

As for `CN(C)c1ccc2c(c1)Oc1cc(N(C)C)ccc1C21OC(=O)c2cc(C(=O)NCCCCCC(=O)N[C@@H](CCCNC(=N)N)C(=O)N[C@@H](CCC(=O)O)C(=O)N[C@H]3CCn4cc(nn4)-c4cc(C(=O)O)cc(c4)-c4cn(nn4)CC[C@@H](C(=O)N[C@@H](CCC(=O)O)C(N)=O)NC(=O)CNC(=O)[C@H](CC(=O)O)NC(=O)CNC3=O)ccc21` [T-cp4n2m3c], the Kd in assay [1] was 440 ± 10 nM.

As to “cp4n1m3: non-binding cross-linked peptide, REXGDGXE, UAA side chains n=1, linker m3 (RE[Dap(N3)]GDG[Dap(N3)]E; linker 3-7 via m3 (inferred); reading uncertain)”, the “Kd TNKS2 ARC4 (Direct FP)” value in assay [1] is listed as “nondetectable”.

As to `CN(C)c1ccc2c(c1)Oc1cc(N(C)C)ccc1C21OC(=O)c2cc(C(=O)NCCCCCC(=O)N[C@@H](CCCNC(=N)N)C(=O)N[C@@H](CCC(=O)O)C(=O)N[C@H]3CCn4cc(nn4)-c4cc(C(=O)N[C@@H](CCCNC(=N)N)C(=O)N[C@@H](CCCNC(=N)N)C(=O)N[C@@H](CCCNC(=N)N)C(=O)N[C@@H](CCCNC(=N)N)C(=O)N[C@@H](CCCNC(=N)N)C(=O)N[C@@H](CCCNC(=N)N)C(=O)N[C@@H](CCCNC(=N)N)C(=O)N[C@@H](CCCNC(=N)N)C(=O)N[C@@H](CCCNC(=N)N)C(N)=O)cc(c4)-c4cn(nn4)CC[C@@H](C(=O)N[C@@H](CCC(=O)O)C(N)=O)NC(=O)CNC(=O)[C@H](CC(=O)O)NC(=O)CNC3=O)ccc21` [T-cp4n2m3c-R9], the Kd in assay [1] came out at 740 ± 30 nM.

Turning to `CN(C)c1ccc2c(c1)Oc1cc(N(C)C)ccc1C21OC(=O)c2cc(C(=O)NCCCCCC(=O)N[C@@H](CCCNC(=N)N)C(=O)N[C@@H](CCC(=O)O)C(=O)N[C@H]3CCn4cc(nn4)CCCc4cn(nn4)CCC[C@@H](C(=O)N[C@@H](CCC(=O)O)C(N)=O)NC(=O)CNC(=O)[C@H](CC(=O)O)NC(=O)CNC3=O)ccc21` [T-cp4n23m3], the Kd in assay [1] came out at 1100 ± 40 nM.

Turning to `CC(C)C[C@H](NC(=O)c1cc2cc(c1)-c1cn(nn1)CC[C@H](NC(=O)[C@H](CCC(=O)O)NC(=O)[C@H](CCCNC(=N)N)NC(=O)CCCCCNC(=O)c1ccc3c(c1)C(=O)OC31c3ccc(N(C)C)cc3Oc3cc(N(C)C)ccc31)C(=O)NCC(=O)N[C@@H](CC(=O)O)C(=O)NCC(=O)N[C@H](C(=O)N[C@@H](CCC(=O)O)C(N)=O)CCn1cc-2nn1)C(=O)N[C@@H](CS)C(=O)N[C@@H](CC(C)C)C(=O)N[C@@H](CCCNC(=N)N)C(N)=O` [T-cp4n2m3c-LCLR], in assay [1], the Kd amounted to 730 ± 20 nM.

Turning to `CN(C)c1ccc2c(c1)Oc1cc(N(C)C)ccc1C21OC(=O)c2cc(C(=O)NCCCCCC(=O)N[C@@H](CCCNC(=N)N)C(=O)N[C@@H](CCC(=O)O)C(=O)N[C@H]3CCCn4cc(nn4)CCCc4cn(nn4)CCC[C@@H](C(=O)N[C@@H](CCC(=O)O)C(N)=O)NC(=O)CNC(=O)[C@H](CC(=O)O)NC(=O)CNC3=O)ccc21` [T-cp4n3m3], the Kd in assay [1] came out at 2600 ± 100 nM. Same read-out and setting: with `CN(C)c1ccc2c(c1)Oc1cc(N(C)C)ccc1C21OC(=O)c2cc(C(=O)NCCCCCC(=O)N[C@@H](CCCNC(=N)N)C(=O)N[C@@H](CCC(=O)O)C(=O)N[C@H]3CCn4cc(nn4)CN(CC(=O)O)Cc4cn(nn4)CC[C@@H](C(=O)N[C@@H](CCC(=O)O)C(N)=O)NC(=O)CNC(=O)[C@H](CC(=O)O)NC(=O)CNC3=O)ccc21` [T-cp4n2m3N] the figure was 1200 ± 20 nM; with `CN(C)c1ccc2c(c1)Oc1cc(N(C)C)ccc1C21OC(=O)c2cc(C(=O)NCCCCCC(=O)N[C@@H](CCCNC(=N)N)C(=O)N[C@@H](CCC(=O)O)C(=O)N[C@H]3CCn4cc(nn4)CCCCc4cn(nn4)CC[C@@H](C(=O)N[C@@H](CCC(=O)O)C(N)=O)NC(=O)CNC(=O)[C@H](CC(=O)O)NC(=O)CNC3=O)ccc21` [T-cp4n2m4], 800 ± 20 nM.

With {5‑TAMRA-Ahx}-RE[Aha]GDG[Aha]E (triazole 3-7 via m5; reading uncertain) [T-cp4n2m5], the dissociation constant (Kd) in assay [2] was determined as 1290 nM; in assay [3], 1300 ± 40 nM. In assay [4], {5‑TAMRA-Ahx}-RE[Aha]GDG[Aha]E (triazole 3-7 via m3N; reading uncertain) [T-cp4n2m3N] yielded a dissociation constant (Kd) of 280 ± 5 nM.

Take Ac-REAGDGEE-NH2 [pep1 (unlabeled linear consensus peptide Ac-REAGDGEE)]: the “stoichiometry N” value in assay [5] amounted to 0.9 ± 0.01. In assay [6], the Kd turned out to be 1180 ± 40 nM and the “stoichiometry N” value is 1 ± 0.004. Take Ac-RE[Aha]GDG[Aha]E-NH2 (bridge 3-7; not fully specified (bridges)) [cp4n2m3c (unlabeled)]: in assay [5], the Kd amounted to 370 ± 40 nM and the “stoichiometry N” value came to 1.1 ± 0.02. Besides, in assay [6], the Kd came to 640 ± 10 nM and the “stoichiometry N” value was found to be 1.1 ± 0.002.

On to {5‑TAMRA-Ahx}-RE[n3]GDG[n3]E (bridge 3-7; not fully specified (bridges)) [T-cp4n3m5], for which the results for the Kd in assay [2] and in assay [3] were 1910 nM and 1900 ± 50 nM, respectively. For the molecule Ac-RE[Aha]GDG[Aha]E-NH2 (triazole 3-7 via m3; reading uncertain) [cp4n2m3 (unlabeled)], in assay [5], binding was characterised by a dissociation constant (Kd) of 260 ± 30 nM and the “stoichiometry N” value is 0.9 ± 0.01. Also, in assay [6], the Kd turned out to be 890 ± 40 nM and the “stoichiometry N” value came out at 0.9 ± 0.005.

{5‑TAMRA-Ahx}-RE[Aha]GDG[Aha]E (triazole 3-7 via m3; reading uncertain) [T-cp4n2m3] showed a Kd in assay [4] of 180 ± 7 nM. With {5‑TAMRA-Ahx}-RE[Orn(N3)]GDG[Orn(N3)]E (bridge 3-7; not fully specified (bridges)) [T-cp4n3m4], the Kd in assay [2] was 1110 nM; in assay [3] it was 1100 ± 30 nM. Consider {5‑TAMRA-Ahx}-RE[Aha]GDG[Aha]E (triazole 3-7 via m4; reading uncertain) [T-cp4n2m4], for which the values for the Kd in assay [4] and in assay [2] were 290 ± 8 nM and 810 nM, respectively. Turning to {5‑TAMRA-Ahx}-RE[Aha]GDG[Aha]E-NH2 (triazole 3-7 via m3c; reading uncertain) [T-cp4n2m3c], the Kd worked out at 320 ± 3 nM in assay [4] and 400 ± 10 nM in assay [3].
